Laboratory results from patent US20160022764A1 (RHYTHM PHARMACEUTICALS, published 2016).
Bridge positions count the residues as written; N and C are the ends. Square brackets hold non-standard residues; d marks the D form. dTle = CC(C)(C)[C@@H](N)C(=O)O; Pen = CC(C)(S)[C@H](N)C(=O)O; hCys = N[C@@H](CCS)C(=O)O

Legend:
Test in all cases: cell-based or functional assay
melanocortin-1 receptor = melanocortin-1 receptor (human, UniProt Q01726 1-317)
melanocortin-3 receptor = melanocortin-3 receptor (human, UniProt P41968 1-323)
melanocortin-5 receptor = melanocortin-5 receptor (human, UniProt P33032 1-325)
melanocortin-4 receptor = melanocortin-4 receptor (human, UniProt P32245 1-332)
Chain of melanocortin-4 receptor (P32245 whole entry): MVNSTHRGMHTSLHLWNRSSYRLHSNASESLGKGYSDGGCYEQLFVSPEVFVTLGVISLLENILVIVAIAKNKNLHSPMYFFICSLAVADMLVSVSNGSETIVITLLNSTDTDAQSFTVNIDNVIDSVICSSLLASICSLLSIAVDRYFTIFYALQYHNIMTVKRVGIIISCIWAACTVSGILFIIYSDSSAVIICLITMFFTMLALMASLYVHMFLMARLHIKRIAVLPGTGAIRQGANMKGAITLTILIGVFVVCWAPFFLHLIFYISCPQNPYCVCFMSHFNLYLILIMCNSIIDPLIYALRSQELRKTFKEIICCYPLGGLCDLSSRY

Chain of melanocortin-5 receptor (P33032 whole entry): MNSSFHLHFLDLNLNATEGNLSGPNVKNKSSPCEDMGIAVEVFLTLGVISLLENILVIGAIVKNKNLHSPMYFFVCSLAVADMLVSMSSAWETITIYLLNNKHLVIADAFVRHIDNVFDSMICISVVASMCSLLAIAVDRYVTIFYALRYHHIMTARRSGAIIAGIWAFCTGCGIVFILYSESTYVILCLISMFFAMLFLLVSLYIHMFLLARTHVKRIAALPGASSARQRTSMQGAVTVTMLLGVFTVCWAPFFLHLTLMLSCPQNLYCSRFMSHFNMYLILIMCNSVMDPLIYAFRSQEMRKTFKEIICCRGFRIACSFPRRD
Chain of melanocortin-3 receptor (P41968 whole entry): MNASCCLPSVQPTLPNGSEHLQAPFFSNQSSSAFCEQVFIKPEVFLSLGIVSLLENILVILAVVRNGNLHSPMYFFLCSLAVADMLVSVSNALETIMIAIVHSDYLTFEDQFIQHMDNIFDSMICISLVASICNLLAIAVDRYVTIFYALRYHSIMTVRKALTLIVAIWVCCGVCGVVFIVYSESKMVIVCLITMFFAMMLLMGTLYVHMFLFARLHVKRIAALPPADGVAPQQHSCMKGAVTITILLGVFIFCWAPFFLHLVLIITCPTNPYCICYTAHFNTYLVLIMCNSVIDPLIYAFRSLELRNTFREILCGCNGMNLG
Chain of melanocortin-1 receptor (Q01726 whole entry): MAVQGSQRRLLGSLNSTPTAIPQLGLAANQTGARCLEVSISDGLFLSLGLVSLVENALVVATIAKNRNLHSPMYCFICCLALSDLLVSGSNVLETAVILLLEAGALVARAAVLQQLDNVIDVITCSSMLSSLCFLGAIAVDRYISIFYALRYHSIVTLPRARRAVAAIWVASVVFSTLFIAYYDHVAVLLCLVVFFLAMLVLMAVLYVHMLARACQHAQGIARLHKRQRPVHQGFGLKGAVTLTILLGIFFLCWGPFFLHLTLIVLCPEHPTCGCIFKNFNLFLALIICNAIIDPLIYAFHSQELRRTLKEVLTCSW

Binder	cAMP Assay (EC-50) (melanocortin-1 receptor)	cAMP Assay (EC-50) (melanocortin-3 receptor)	cAMP Assay (EC-50) (melanocortin-5 receptor)	Ratios of EC50 values: MC1/4 (melanocortin-1 receptor)	Ratios of EC50 values: MC3/4 (melanocortin-3 receptor)	cAMP Assay (EC-50) (melanocortin-4 receptor)	Ratios of EC50 values: MC5/4 (melanocortin-5 receptor)
Ac-RC[dTle]H[dF]RWC-NH2 (disulfide 2-8) [Compound 3: Ac-Arg-cyclo[Cys-D-Tle-His-D-Phe-Arg-Trp-Cys]-NH2]	1 nM	0.7 nM	672 nM				
Ac-R[hCys][dA][dF]RW[Pen]-NH2 (disulfide 2-7; SMILES CC(=O)N[C@@H](CCCNC(=N)N)C(=O)N[C@H]1CCSSC(C)(C)[C@@H](C(N)=O)NC(=O)[C@H](Cc2c[nH]c3ccccc23)NC(=O)[C@H](CCCNC(=N)N)NC(=O)[C@@H](Cc2ccccc2)NC(=O)[C@@H](C)NC1=O) [Compound 17: Ac-Arg-cyclo[hCys-D-Ala-D-Phe-Arg-Trp-Pen]-NH2]	195 nM	233 nM	2180 nM	15	17	13.7 nM	159
Ac-RC[dL]H[dF]RWC-NH2 (disulfide 2-8) [Compound 1: Ac-Arg-cyclo[Cys-D-Leu-His-D-Phe-Arg-Trp-Cys]-NH2]	0.47 nM	0.79 nM	91 nM	0.68	1.13	0.7 nM	130
Ac-R[hCys][dA][dF]RWC-NH2 (disulfide 2-7; SMILES CC(=O)N[C@@H](CCCNC(=N)N)C(=O)N[C@H]1CCSSC[C@@H](C(N)=O)NC(=O)[C@H](Cc2c[nH]c3ccccc23)NC(=O)[C@H](CCCNC(=N)N)NC(=O)[C@@H](Cc2ccccc2)NC(=O)[C@@H](C)NC1=O) [Compound 16: Ac-Arg-cyclo[hCys-D-Ala-D-Phe-Arg-Trp-Cys]-NH2]	888 nM	3160 nM	> 10000 nM	120	420	7.5 nM	> 1340
Ac-RC[dA]W[dF]RWC-NH2 (disulfide 2-8; SMILES CC(=O)N[C@@H](CCCNC(=N)N)C(=O)N[C@H]1CSSC[C@@H](C(N)=O)NC(=O)[C@H](Cc2c[nH]c3ccccc23)NC(=O)[C@H](CCCNC(=N)N)NC(=O)[C@@H](Cc2ccccc2)NC(=O)[C@H](Cc2c[nH]c3ccccc23)NC(=O)[C@@H](C)NC1=O) [Compound 7: Ac-Arg-cyclo[Cys-D-Ala-Trp-D-Phe-Arg-Trp-Cys]-NH2]	273 nM	> 10000 nM	259 nM	8	> 290	34 nM	7
Ac-RC[dA]P[dF]RWC-NH2 (disulfide 2-8; SMILES CC(=O)N[C@@H](CCCNC(=N)N)C(=O)N[C@H]1CSSC[C@@H](C(N)=O)NC(=O)[C@H](Cc2c[nH]c3ccccc23)NC(=O)[C@H](CCCNC(=N)N)NC(=O)[C@@H](Cc2ccccc2)NC(=O)[C@@H]2CCCN2C(=O)[C@@H](C)NC1=O) [Compound 13: Ac-Arg-cyclo[Cys-D-Ala-Pro-D-Phe-Arg-Trp-Cys]-NH2]	280 nM	> 10000 nM	707 nM	5	> 200	56 nM	13
Ac-R[hCys]A[dF]RWC-NH2 (disulfide 2-7; SMILES CC(=O)N[C@@H](CCCNC(=N)N)C(=O)N[C@H]1CCSSC[C@@H](C(N)=O)NC(=O)[C@H](Cc2c[nH]c3ccccc23)NC(=O)[C@H](CCCNC(=N)N)NC(=O)[C@@H](Cc2ccccc2)NC(=O)[C@H](C)NC1=O) [Compound 15: Ac-Arg-cyclo[hCys-Ala-D-Phe-Arg-Trp-Cys]-NH2]	4 nM	1 nM	42 nM	15	3.8	0.26 nM	161
Ac-RC[dI]H[dF]RWC-NH2 (disulfide 2-8) [Compound 2: Ac-Arg-cyclo[Cys-D-Ile-His-D-Phe-Arg-Trp-Cys]-NH2]	0.69 nM	0.96 nM	420 nM	0.69	0.96	1 nM	420
Ac-RC[dA][His(3-Me)][dF]RWC-NH2 (disulfide 2-8) [Compound 5: Ac-Arg-cyclo[Cys-D-Ala-His(3-Me)-D-Phe-Arg-Trp-Cys]-NH2]	4.1 nM	406 nM	1080 nM			1.15 nM	
